Reference: PMC3314626, “Crystal Structures of the Tetratricopeptide Repeat Domains of Kinesin Light Chains: Insight into Cargo Recognition Mechanisms” (PLoS ONE, 2012)

Biological target: T1, KLC2-TPR S328N mutant (human, UniProt Q9H0B6-1 217-480, S328N)
T1 construct: kinesin light chain 2 (KLC2), human, TPR domain, residues 217-480 of GenBank NP_073733, with S328N; made from the KLC2-TPR construct with a QuickChange kit; also called KLC2-S328N; not shown: His6 (from the vector pET28-LIC, modified)
T1 sequence (Q9H0B6 217-480 S328N): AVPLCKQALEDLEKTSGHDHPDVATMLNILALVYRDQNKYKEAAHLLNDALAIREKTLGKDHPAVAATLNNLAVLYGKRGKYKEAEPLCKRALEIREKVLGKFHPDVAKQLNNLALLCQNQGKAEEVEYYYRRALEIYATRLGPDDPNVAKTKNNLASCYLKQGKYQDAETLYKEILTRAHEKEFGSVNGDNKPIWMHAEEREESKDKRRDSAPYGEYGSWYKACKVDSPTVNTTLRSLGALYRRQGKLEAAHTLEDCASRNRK
Experiment: ITC; peptide (1-3 mM) in the syringe injected into 60-130 uM KLC1-TPR or KLC2-TPR (or mutant) in the cell; 25 C; 20 mM Bis-Tris pH 6.5, 500 mM NaCl, 0.5 mM TCEP; one-site binding model
Details: both partners purified

Kd: 18.7 µM
dH: -15.9 kcal/mol
stoichiometry N: 1.18
B1: JIP1 peptide (C-terminal residues of JNK-interacting protein 1) (peptide)
peptide: Ac-EYTCPTEDIYLE-OH
notes: also called JIP peptide; source: synthetic peptide (Tufts University Core Facility)
